# Test results from patent publication US20150190490A1 (ONCOTHERAPY SCIENCE, published 2015).
# B1: CDCA1 (55-78) long peptide (peptide)
# peptide: IVYGIRLEHFYMMPVNSEVMYPHL
# notes: Synthetic long peptide (purity >90%), pulsed onto antigen presenting cells; also called CDCA1 (55-78) LP; CDCA1 (55-78)-LP
# How the values were obtained:
# [1] = target: T1, HLA-DR15 (DRB1*15:02) (human); experiment: concluded from IFN-gamma ELISPOT restriction analysis (peptide-pulsed L-DR15 cells, blocking mAbs)
# T1 construct: whole, on cells; MHC class II molecule on mouse L-cell transfectants (L-DR15) or donor PBMCs; also called L-DR15
# Experimental: (§1) On day 5, the DCs were cultured in the presence of the recombinant CDCA1 (50 micro g/ml) and OK432. The protein-loaded mature DCs were harvested on day 7, washed and used as stimulator in IFN-gamma ELISPOT assays. To determine restriction HLA molecules involved in antigen presentation, blocking of antigen-induced IFN-gamma production was investigated by adding anti-HLA-DR mAb (L243, Biolegend), anti-HLA-DP mAb, (B7/21, abcam), anti-human HLA-DQ mAb (SPV-L3, abcam), or anti-HLA class I mAb, (W6/32, abcam). All mAbs were used at a final concentration of 5 micro g/ml. All assessments of IFN-gamma ELISPOT assays were carried out in duplicate or triplicate, and results corresponded to mean values.
# (§2) The immune responses of T-cells to PBMC, L-cells, and murine BM-DC pulsed with peptides (10 micro g/mL) or CDCA1 proteins-loaded human DCs (50 micro g/mL) were assessed by IFN-gamma ELISPOT assays (BD Biosciences, San Jose, Calif.) according to manufacturer's instructions and described previously (Zarour H M et al., Cancer Res 2000; 60:4946-52.). In briefly, peptide-pulsed PBMCs (3×10⁴/well), L-cells (5×10⁴/well), T2 cells (2×10⁴/well), C1R-A24 cells (2×10⁴/well), bone marrow-derived DCs (BM-DCs, 2×10⁴/well), or protein-loaded DCs (5×10³/well) were seeded in triplicate or duplicate in the ELISPOT plates as APCs or target cells. […] After incubation for 18 h, spot numbers were counted. […]
# [2] = target: T2, HLA-DR4 (DRB1*04:05) (human); experiment: concluded from IFN-gamma ELISPOT restriction analysis (peptide-pulsed L-DR4 cells, blocking mAbs)
# T2 construct: whole, on cells; MHC class II molecule on mouse L-cell transfectants (L-DR4), donor PBMCs or DCs; also called L-DR4; L-DR0405
# Experimental: as §1, §2
binder,measurement,setting,value
B1,binding result,[1],binds
same,binding result,[2],binds
